Values of other authors in article PMC9776395.

Target: His193 (UniProt position 193, WVLGEHGDSSV)
Experiment: kinetics
Conditions: Enzyme-NADH complex binding pyruvate (pyruvate reduction direction)

In the case of “L-lactate dehydrogenase A chain (LDHA, M subunit, LDH5 homotetramer) (Homo sapiens)”, the pKa is listed as 7.31.
